The target in this assay is T1, Drosophila Slit D2 (second leucine-rich repeat domain) (Drosophila, UniProt P24014 310-526, two N-linked glycans).
T1 sequence: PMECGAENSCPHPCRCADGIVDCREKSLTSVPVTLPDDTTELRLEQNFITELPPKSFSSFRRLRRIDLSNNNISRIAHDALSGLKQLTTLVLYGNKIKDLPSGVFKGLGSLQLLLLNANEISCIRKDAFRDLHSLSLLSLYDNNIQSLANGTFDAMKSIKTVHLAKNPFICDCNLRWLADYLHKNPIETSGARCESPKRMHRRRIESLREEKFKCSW
Nature of the assay: SEC.

B1: Drosophila Robo IG1–2 (domain or fragment)
chain: not shown
A word on the stoichiometry N: it is a count of units in the complex or per binding partner. In the case of B1, the “stoichiometry N” value turned out to be 1.
